{
  "source": "patent US11266746B2",
  "about": "“Therapeutic antitumor combination of a TLR4 ligand with other treatments” (THE UNITED STATES OF AMERICA, as represented by the …, priority 2016, dated 2022)",
  "molecules": {"B1": {"name": "High Mobility Group Nucleosome-binding protein 1 (protein, UniProt P05114 1-100, looked up)", "Non-histone chromosomal …": "MPKRKVSSAEGAAKEEPKRRSARLSAKPPAKVEAKPKKAAAKDKSSDKKVQTKGKRGAKGKQAEVANQETKEDLPAENGETKTEESPASDEAGEKEAKSD", "notes": "TLR4 ligand"}},
  "test_system": "CT26 tumors",
  "assay": "Treatment of small (about 5 mm) established CT26 tumors in mice",
  "assay_type": "in vivo, Balb/c mice",
  "method": "Balb/c mice were inoculated subcutaneously with 100,000 or 200,000 CT26 cells on day 1. […] On days 8, 12, 15 and 19 mice were administered PBS or 1 μg, 10 μg or 50 μg of rHMGN1. Tumor growth was monitored and plotted.\nSmall CT26 tumors were treated by a combination of one intraperitoneal (i.p.) injection of a suboptimal dose of cyclophosphamide or Cytoxan to reduce regulatory T cells (Treg), a key suppressor cell type in tumors, and four intratumoral (i.t.) administrations of HMGN1 within two weeks. Balb/c mice were subcutaneously inoculated with 100,000 or 200,000 CT26 cells on day 1. When the tumor size reached about 5 mm in diameter (by 4-6 days after tumor inoculation), mice were administered one dose of cyclophosphamide (100 mg/kg, i,p.) and/or HMGN1 protein (10 μg, intratumorally), twice a week for 2 weeks. PBS was administered i.t. or i.p. Tumor growth was monitored and plotted.",
  "note": "Entries after “also recorded” stand apart in the source; their conditions may differ.",
  "data": [
    {"molecule": "B1", "values": [
      {"measurement": "tumor growth", "setting": "small (about 5 mm) CT26 tumors, intratumoral rHMGN1 1, 10 or 50 μg on days 8, 12, 15 and 19", "result": "slowed down tumor growth, but did not completely eradicate tumors; also recorded: inhibited tumor growth in a dose dependent manner"},
      {"measurement": "percent survival", "setting": "small CT26 tumors, intratumoral rHMGN1", "result": "improvement in percent survival"}
    ]}
  ]
}
